Test results from US20080138335A1 (Kyowa Kirin, published 2008).

B1: 341-G2Ser[Q274K] (antibody, human IgG2, kappa)
heavy: QVQLQQSGPGLVKPSQTLSLTCAISGDSVSSNSATWNWIRQSPSRDLEWLGRTYYRSKWYRDYVGSVKSRIIINPDTSNNQFSLQLNSVTPEDTAIYYCTRAQWLGGDYPYYYSMDVWGQGTTVTVSSASTKGPSVFPLAPCSRSTSESTAALGCLVKDYFPEPVTVSWNSGALTSGVHTFPAVLQSSGLYSLSSVVTVPSSNFGTQTYTCNVDHKPSNTKVDKTVERKCCVECPPCPAPPVAGPSVFLFPPKPKDTLMISRTPEVTCVVVDVSHEDPEVKFNWYVDGVEVHNAKTKPREEQFNSTFRVVSVLTVVHQDWLNGKEYKCKVSNKGLPASIEKTISKTKGQPREPQVYTLPPSREEMTKNQVSLTCLVKGFYPSDIAVEWESNGQPENNYKTTPPMLDSDGSFFLYSKLTVDKSRWQQGNVFSCSVMHEALHNHYTQKSLSLSPGK
light: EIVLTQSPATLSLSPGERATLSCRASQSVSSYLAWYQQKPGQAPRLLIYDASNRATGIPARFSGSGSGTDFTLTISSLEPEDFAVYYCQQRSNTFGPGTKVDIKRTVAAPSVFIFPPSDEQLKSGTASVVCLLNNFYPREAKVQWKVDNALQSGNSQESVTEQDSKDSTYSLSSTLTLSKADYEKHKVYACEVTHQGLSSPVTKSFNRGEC
notes: Made from the 341-G2Ser expression vector; also called N5KG2Ser-341-Q274K
B2: 341-G2Ser[T339A] (antibody, human IgG2, kappa)
heavy: QVQLQQSGPGLVKPSQTLSLTCAISGDSVSSNSATWNWIRQSPSRDLEWLGRTYYRSKWYRDYVGSVKSRIIINPDTSNNQFSLQLNSVTPEDTAIYYCTRAQWLGGDYPYYYSMDVWGQGTTVTVSSASTKGPSVFPLAPCSRSTSESTAALGCLVKDYFPEPVTVSWNSGALTSGVHTFPAVLQSSGLYSLSSVVTVPSSNFGTQTYTCNVDHKPSNTKVDKTVERKCCVECPPCPAPPVAGPSVFLFPPKPKDTLMISRTPEVTCVVVDVSHEDPEVQFNWYVDGVEVHNAKTKPREEQFNSTFRVVSVLTVVHQDWLNGKEYKCKVSNKGLPASIEKTISKAKGQPREPQVYTLPPSREEMTKNQVSLTCLVKGFYPSDIAVEWESNGQPENNYKTTPPMLDSDGSFFLYSKLTVDKSRWQQGNVFSCSVMHEALHNHYTQKSLSLSPGK
light: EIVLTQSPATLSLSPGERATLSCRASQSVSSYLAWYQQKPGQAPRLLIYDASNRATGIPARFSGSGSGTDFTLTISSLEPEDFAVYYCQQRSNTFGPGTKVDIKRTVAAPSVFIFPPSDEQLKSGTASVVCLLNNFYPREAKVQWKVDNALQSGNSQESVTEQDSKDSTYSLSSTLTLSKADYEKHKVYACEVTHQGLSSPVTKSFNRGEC
notes: Made from the 341-G2Ser expression vector; also called N5KG2Ser-341-T339A
B3: 341-G2Ser[V309L] (antibody, human IgG2, kappa)
heavy: QVQLQQSGPGLVKPSQTLSLTCAISGDSVSSNSATWNWIRQSPSRDLEWLGRTYYRSKWYRDYVGSVKSRIIINPDTSNNQFSLQLNSVTPEDTAIYYCTRAQWLGGDYPYYYSMDVWGQGTTVTVSSASTKGPSVFPLAPCSRSTSESTAALGCLVKDYFPEPVTVSWNSGALTSGVHTFPAVLQSSGLYSLSSVVTVPSSNFGTQTYTCNVDHKPSNTKVDKTVERKCCVECPPCPAPPVAGPSVFLFPPKPKDTLMISRTPEVTCVVVDVSHEDPEVQFNWYVDGVEVHNAKTKPREEQFNSTFRVVSVLTVLHQDWLNGKEYKCKVSNKGLPASIEKTISKTKGQPREPQVYTLPPSREEMTKNQVSLTCLVKGFYPSDIAVEWESNGQPENNYKTTPPMLDSDGSFFLYSKLTVDKSRWQQGNVFSCSVMHEALHNHYTQKSLSLSPGK
light: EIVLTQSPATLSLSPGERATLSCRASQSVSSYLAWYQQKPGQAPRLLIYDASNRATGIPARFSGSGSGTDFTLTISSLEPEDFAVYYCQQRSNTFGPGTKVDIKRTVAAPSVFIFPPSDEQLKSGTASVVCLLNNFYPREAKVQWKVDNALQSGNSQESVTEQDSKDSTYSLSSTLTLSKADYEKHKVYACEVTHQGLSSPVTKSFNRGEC
notes: Made from the 341-G2Ser expression vector; also called N5KG2Ser-341-V309L
B4: 341-G2Ser[F296Y] (antibody, human IgG2, kappa)
heavy: QVQLQQSGPGLVKPSQTLSLTCAISGDSVSSNSATWNWIRQSPSRDLEWLGRTYYRSKWYRDYVGSVKSRIIINPDTSNNQFSLQLNSVTPEDTAIYYCTRAQWLGGDYPYYYSMDVWGQGTTVTVSSASTKGPSVFPLAPCSRSTSESTAALGCLVKDYFPEPVTVSWNSGALTSGVHTFPAVLQSSGLYSLSSVVTVPSSNFGTQTYTCNVDHKPSNTKVDKTVERKCCVECPPCPAPPVAGPSVFLFPPKPKDTLMISRTPEVTCVVVDVSHEDPEVQFNWYVDGVEVHNAKTKPREEQYNSTFRVVSVLTVVHQDWLNGKEYKCKVSNKGLPASIEKTISKTKGQPREPQVYTLPPSREEMTKNQVSLTCLVKGFYPSDIAVEWESNGQPENNYKTTPPMLDSDGSFFLYSKLTVDKSRWQQGNVFSCSVMHEALHNHYTQKSLSLSPGK
light: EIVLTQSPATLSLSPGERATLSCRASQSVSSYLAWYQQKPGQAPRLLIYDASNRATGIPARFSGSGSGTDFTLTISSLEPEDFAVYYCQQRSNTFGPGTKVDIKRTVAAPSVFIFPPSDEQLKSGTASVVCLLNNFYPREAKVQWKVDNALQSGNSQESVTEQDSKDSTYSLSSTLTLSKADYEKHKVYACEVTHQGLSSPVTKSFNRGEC
notes: Made from the 341-G2Ser expression vector; also called N5KG2Ser-341-F296Y
B5: 341-G2Ser[F300Y] (antibody, human IgG2, kappa)
heavy: QVQLQQSGPGLVKPSQTLSLTCAISGDSVSSNSATWNWIRQSPSRDLEWLGRTYYRSKWYRDYVGSVKSRIIINPDTSNNQFSLQLNSVTPEDTAIYYCTRAQWLGGDYPYYYSMDVWGQGTTVTVSSASTKGPSVFPLAPCSRSTSESTAALGCLVKDYFPEPVTVSWNSGALTSGVHTFPAVLQSSGLYSLSSVVTVPSSNFGTQTYTCNVDHKPSNTKVDKTVERKCCVECPPCPAPPVAGPSVFLFPPKPKDTLMISRTPEVTCVVVDVSHEDPEVQFNWYVDGVEVHNAKTKPREEQFNSTYRVVSVLTVVHQDWLNGKEYKCKVSNKGLPASIEKTISKTKGQPREPQVYTLPPSREEMTKNQVSLTCLVKGFYPSDIAVEWESNGQPENNYKTTPPMLDSDGSFFLYSKLTVDKSRWQQGNVFSCSVMHEALHNHYTQKSLSLSPGK
light: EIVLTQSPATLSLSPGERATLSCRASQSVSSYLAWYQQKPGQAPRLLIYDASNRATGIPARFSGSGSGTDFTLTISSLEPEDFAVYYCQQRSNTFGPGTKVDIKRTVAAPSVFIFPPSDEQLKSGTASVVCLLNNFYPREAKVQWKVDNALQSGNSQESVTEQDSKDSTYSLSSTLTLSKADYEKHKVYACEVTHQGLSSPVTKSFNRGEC
notes: Made from the 341-G2Ser expression vector; also called N5KG2Ser-341-F300Y
B6: 341-G2Ser[G327A] (antibody, human IgG2, kappa)
heavy: QVQLQQSGPGLVKPSQTLSLTCAISGDSVSSNSATWNWIRQSPSRDLEWLGRTYYRSKWYRDYVGSVKSRIIINPDTSNNQFSLQLNSVTPEDTAIYYCTRAQWLGGDYPYYYSMDVWGQGTTVTVSSASTKGPSVFPLAPCSRSTSESTAALGCLVKDYFPEPVTVSWNSGALTSGVHTFPAVLQSSGLYSLSSVVTVPSSNFGTQTYTCNVDHKPSNTKVDKTVERKCCVECPPCPAPPVAGPSVFLFPPKPKDTLMISRTPEVTCVVVDVSHEDPEVQFNWYVDGVEVHNAKTKPREEQFNSTFRVVSVLTVVHQDWLNGKEYKCKVSNKALPASIEKTISKTKGQPREPQVYTLPPSREEMTKNQVSLTCLVKGFYPSDIAVEWESNGQPENNYKTTPPMLDSDGSFFLYSKLTVDKSRWQQGNVFSCSVMHEALHNHYTQKSLSLSPGK
light: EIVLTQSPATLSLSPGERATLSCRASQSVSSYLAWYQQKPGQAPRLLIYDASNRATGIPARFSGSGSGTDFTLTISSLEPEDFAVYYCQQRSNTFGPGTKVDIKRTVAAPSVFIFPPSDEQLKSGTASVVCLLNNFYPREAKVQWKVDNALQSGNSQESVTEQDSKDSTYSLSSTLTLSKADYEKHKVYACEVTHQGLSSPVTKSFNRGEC
notes: Made from the 341-G2Ser expression vector; also called N5KG2Ser-341-G327A
B7: 4D11-G[1133] (antibody, V domains shown)
VH: QLQLQESGPGLLKPSETLSLTCTVSGGSISSPGYYGGWIRQPPGKGLEWIGSIYKSGSTYHNPSLKSRVTISVDTSKNQFSLKLSSVTAADTAVYYCTRPVVRYFGWFDPWGQGTLVTVSS
VL: AIQLTQSPSSLSASVGDRVTITCRASQGISSALAWYQQKPGKAPKLLIYDASNLESGVPSRFSGSGSGTDFTLTISSLQPEDFATYYCQQFNSYPTFGQGTKVEIK
notes: also called IgG[1/1/3/3]; N5KG1133; not shown: human IgG1 heavy chain constant region, CH1 and hinge domains (EU 118-237), from vector N5KG1-Val Lark; human IgG3 heavy chain constant region, CH2 and CH3 domains (EU 238-446), from vector N5KG3
B8: 4D11-G3[E356D] (antibody, V domains shown)
VH: QLQLQESGPGLLKPSETLSLTCTVSGGSISSPGYYGGWIRQPPGKGLEWIGSIYKSGSTYHNPSLKSRVTISVDTSKNQFSLKLSSVTAADTAVYYCTRPVVRYFGWFDPWGQGTLVTVSS
VL: AIQLTQSPSSLSASVGDRVTITCRASQGISSALAWYQQKPGKAPKLLIYDASNLESGVPSRFSGSGSGTDFTLTISSLQPEDFATYYCQQFNSYPTFGQGTKVEIK
notes: One-amino acid variant of 4D11-G3; also called IgG3-[E356D]; N5KG3-E356D; not shown: human IgG3 heavy chain constant region, from vector N5KG3

These binders were tested against T1, CD40 expressed on Ramos [ATCC] cells (UniProt P25942 21-277, limits assumed) (assay: flow cytometry (FACS) on Ramos cells expressing CD40, R-PE anti-human antibody).
T1 construct: whole, on cells; Target of all flow cytometry and CD95 assays; endogenous CD40 on the Ramos cell line
T1 sequence (P25942 21-277 limits assumed): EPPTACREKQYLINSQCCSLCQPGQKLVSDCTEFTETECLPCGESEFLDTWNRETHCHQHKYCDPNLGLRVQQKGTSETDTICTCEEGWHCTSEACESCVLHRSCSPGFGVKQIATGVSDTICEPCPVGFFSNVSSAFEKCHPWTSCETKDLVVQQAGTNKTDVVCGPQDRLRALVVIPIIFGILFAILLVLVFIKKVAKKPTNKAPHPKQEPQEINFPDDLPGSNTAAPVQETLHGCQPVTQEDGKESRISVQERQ

Binding result, binds:
B1
B2
B3
B4
B5
B6
B7
B8
